Laboratory results: patent US20220177579A1 (published 2022)
Where a chain is given by its changes, count along the chain named.

T1: human CD19 on CD19(+) NALM6 acute lymphoid leukemia cells (UniProt P15391 20-556)
T1 chain: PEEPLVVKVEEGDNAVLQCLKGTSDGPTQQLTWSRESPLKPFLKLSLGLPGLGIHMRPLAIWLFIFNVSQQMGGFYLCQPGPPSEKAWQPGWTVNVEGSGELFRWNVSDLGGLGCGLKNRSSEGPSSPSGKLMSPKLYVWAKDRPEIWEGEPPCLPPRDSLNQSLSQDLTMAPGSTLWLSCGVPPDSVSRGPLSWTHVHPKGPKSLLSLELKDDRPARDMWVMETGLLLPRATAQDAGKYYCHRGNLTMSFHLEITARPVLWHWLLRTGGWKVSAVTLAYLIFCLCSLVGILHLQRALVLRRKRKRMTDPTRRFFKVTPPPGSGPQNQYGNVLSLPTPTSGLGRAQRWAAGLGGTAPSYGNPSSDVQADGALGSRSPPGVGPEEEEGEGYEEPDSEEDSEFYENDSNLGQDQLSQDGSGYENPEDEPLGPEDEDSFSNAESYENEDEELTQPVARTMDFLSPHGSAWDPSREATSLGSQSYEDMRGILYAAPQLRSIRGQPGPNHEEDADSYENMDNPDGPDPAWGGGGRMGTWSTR

B1: L3+H8b (antibody, V domains shown)
VH: QVQLQESGPGLVKPSETLSVTCTVSGVSLPDYGVSWIRQPPGKGLEWIGVIWGSETTYYNPSLKSRLTISKDTSKNQFSLKLSSVTAADTAVYYCAKHYYYGGSYAMDYWGQGTSVTVSS
VL: DIQMTQSTSSLSASVGDRVTITCRASQDISKYLNWYQQKPGKAVKLLIYHTSRLHSGVPSRFSGSGSGTDYTFTISSLQPEDIATYYCQQGNTLPYTFGGGTKLEIT
B2: L3+H6b (antibody, V domains shown)
VH: B1 VH with V20L, I48L, L67V, K71V, T73N
VL: B1 VL
B3: L3+H3 (antibody, V domains shown)
VH: B1 VH with V20L, Y58N, K71V, L82M
VL: B1 VL
B4: L3+H5b (antibody, V domains shown)
VH: B1 VH with V20L, Y58N, L67V, N76S, F78V
VL: B1 VL
B5: L2+H3 (antibody, V domains shown)
VH: B1 VH with V20L, Y58N, K71V, L82M
VL: B1 VL with T8P, R24Q, F73L, Y87F

Target: T1, human CD19 on CD19(+) NALM6 acute …
Test: FACS

| EC50 | Binder |
| --- | --- |
| 0.19 µg/mL | B1 |
| 0.13 µg/mL | B2 |
| 0.64 µg/mL | B3 |
| 0.28 µg/mL | B4 |
| 0.41 µg/mL | B5 |
